Test results as given in patent US20100160556A1 (published 2010).

B1: PEG-CM3-ANA08 (CM3-ANA08 conjugated to unbranched 40 kDa mPEG maleimido propionamide) (peptide)
peptide: HAEGTFTSDVSSYLEGQAAKEFIAWLVKGRGRRDFPEEVAIAEELGC
modifications: unbranched 40 kDa mPEG maleimido propionamide on the free thiol group of the C-terminal cysteine

Molecular target: GLP-1 receptor (on a GLP-1 receptor transfected CHO cell line)
Test: cell-based or functional assay

ED50 relative to CM3 (GLP-1 bioassay, cAMP increase) | IC50 (GLP-1 bioassay, cAMP increase) | Binder
~5 times |  | B1
 | 187 µM | HAEGTFTSDVSSYLEGQAAKEFIAWLVKGRGRRDFPEEVAIAEELG [CM3 (GLP-1(7-37)-IP2, murine IP2)]
 | 159 µM | HAEGTFTSDVSSYLEGQAAKEFIAWLVKGRGAADFPEEVAIAEELG [CM3-ANA01]
